Results: PMC11259706 (The Journal of Biological Chemistry, 2024)

B1: Hsp70 10mer peptide Ac-GSGPTIEEVD-OH [modified: N-terminal acetyl; N-terminal acetyl] [not stated] / protein phosphatase 5 (PP5), human, full-length [human] (parent complex)
chain 1: GSGPTIEEVD
chain 2: MAMAEGERTECAEPPRDEPPADGALKRAEELKTQANDYFKAKDYENAIKFYSQAIELNPSNAIYYGNRSLAYLRTECYGYALGDATRAIELDKKYIKGYYRRAASNMALGKFRAALRDYETVVKVKPHDKDAKMKYQECNKIVKQKAFERAIAGDEHKRSVVDSLDIESMTIEDEYSGPKLEDGKVTISFMKELMQWYKDQKKLHRKCAYQILVQVKEVLSKLSTLVETTLKETEKITVCGDTHGQFYDLLNIFELNGLPSETNPYIFNGDFVDRGSFSVEVILTLFGFKLLYPDHFHLLRGNHETDNMNQIYGFEGEVKAKYTAQMYELFSEVFEWLPLAQCINGKVLIMHGGLFSEDGVTLDDIRKIERNRQPPDSGPMCDLLWSDPQPQNGRSISKRGVSCQFGPDVTKAFLEENNLDYIIRSHEVKAEGYEVAHGGRCVTVFSAPNYCDQMGNKASYIHLQGSDLRPQFHQFTAVPHPNVKPMAYANTLLQLGMM

Variants of: B1
Assay: competition fluorescence polarisation; read at the highest peptide concentration, 100 µM; read off a plot

Row | Variant | response [% tracer bound]
1 | chain 1 E7A | ~36
2 | chain 1 D10A | ~110

Other lines, results leading:

Row | response [% tracer bound] | Variant
3 | ~12 | chain 1 I6A
4 | ~56 | chain 1 V9A
5 | ~74 | chain 1 E8A
